Measurements as given in the Human Domainome abundance scans (Beltran et al. 2025).
± gives the uncertainty stated by the source.

B1: Double-stranded RNA-binding protein Staufen homolog 1, residues 183 to 249; numbered along this chain, O95793 (parent)
chain: KSEISQVFEIALKRNLPVNFEVARESGPPHMKNFVTKVSVGEFVGEGEGKSKKISKKNAAIAVLEEL

Variants of: B1
Experiment: abundance fitness (aPCA) (normalised: wild type 0, dead -1); higher = more abundant; growth selection in yeast, the domain comes from the species named
Conditions: Homo sapiens

KSEISQVFEIALKRNLPVNFEVAREPGPPHMKNFVTKVSVGEFVGEGEGKSKKISKKNAAIAVLEEL [S26P] and KSEISQVFEIALKRNLPVNFEVAREQGPPHMKNFVTKVSVGEFVGEGEGKSKKISKKNAAIAVLEEL [S26Q] are within error of each other in abundance fitness: -0.27 ± 0.45 for the first, -0.337 ± 0.42 for the second.

KSEISQVFEIALKRNLPVNFEVAREFGPPHMKNFVTKVSVGEFVGEGEGKSKKISKKNAAIAVLEEL [S26F] and KSEISQVFEIALKRNLPVNFEVARETGPPHMKNFVTKVSVGEFVGEGEGKSKKISKKNAAIAVLEEL [S26T] are within error of each other in abundance fitness: -0.348 ± 0.29 for the first, 0.085 ± 0.21 for the second.

Going from KSEISQVFEIALKRNLPVNFEVARISGPPHMKNFVTKVSVGEFVGEGEGKSKKISKKNAAIAVLEEL [E25I] to KSEISQVFEIALKRNLPVNFEVARVSGPPHMKNFVTKVSVGEFVGEGEGKSKKISKKNAAIAVLEEL [E25V], the abundance fitness rises from -0.141 ± 0.063 to -0.025 ± 0.043.

KSEISQVFEIALKRNLPVNFEVARRSGPPHMKNFVTKVSVGEFVGEGEGKSKKISKKNAAIAVLEEL [E25R] and KSEISQVFEIALKRNLPVNFEVARTSGPPHMKNFVTKVSVGEFVGEGEGKSKKISKKNAAIAVLEEL [E25T] are within error of each other in abundance fitness: -0.046 ± 0.036 for the first, 0.016 ± 0.051 for the second.

KSEISQVFEIALKRNLPVNFEVARASGPPHMKNFVTKVSVGEFVGEGEGKSKKISKKNAAIAVLEEL [E25A] and KSEISQVFEIALKRNLPVNFEVARYSGPPHMKNFVTKVSVGEFVGEGEGKSKKISKKNAAIAVLEEL [E25Y] are within error of each other in abundance fitness: -0.081 ± 0.055 for the first, -0.151 ± 0.065 for the second.

KSEISQVFEIALKRNLPVNFEVARKSGPPHMKNFVTKVSVGEFVGEGEGKSKKISKKNAAIAVLEEL [E25K] and KSEISQVFEIALKRNLPVNFEVARHSGPPHMKNFVTKVSVGEFVGEGEGKSKKISKKNAAIAVLEEL [E25H] are within error of each other in abundance fitness: 0.046 ± 0.055 for the first, -0.052 ± 0.064 for the second.

KSEISQVFEIALKRNLPVNFEVARMSGPPHMKNFVTKVSVGEFVGEGEGKSKKISKKNAAIAVLEEL [E25M] and KSEISQVFEIALKRNLPVNFEVARSSGPPHMKNFVTKVSVGEFVGEGEGKSKKISKKNAAIAVLEEL [E25S] are within error of each other in abundance fitness: -0.011 ± 0.048 for the first, 0.002 ± 0.038 for the second.

KSEISQVFEIALKRNLPVNFEVARGSGPPHMKNFVTKVSVGEFVGEGEGKSKKISKKNAAIAVLEEL [E25G] and KSEISQVFEIALKRNLPVNFEVARLSGPPHMKNFVTKVSVGEFVGEGEGKSKKISKKNAAIAVLEEL [E25L] are within error of each other in abundance fitness: -0.075 ± 0.045 for the first, -0.083 ± 0.034 for the second.

First: KSEISQVFEIALKRNLPVNFEVARQSGPPHMKNFVTKVSVGEFVGEGEGKSKKISKKNAAIAVLEEL [E25Q]
Second: KSEISQVFEIALKRNLPVNFEVARPSGPPHMKNFVTKVSVGEFVGEGEGKSKKISKKNAAIAVLEEL [E25P]
The abundance fitness of the first is higher: 0.021 ± 0.051 for the first, -0.209 ± 0.055 for the second.

KSEISQVFEIALKRNLPVNFEVARCSGPPHMKNFVTKVSVGEFVGEGEGKSKKISKKNAAIAVLEEL [E25C] and KSEISQVFEIALKRNLPVNFEVARESKPPHMKNFVTKVSVGEFVGEGEGKSKKISKKNAAIAVLEEL [G27K] are within error of each other in abundance fitness: -0.104 ± 0.068 for the first, -0.207 ± 0.052 for the second.

KSEISQVFEIALKRNLPVNFEVARESNPPHMKNFVTKVSVGEFVGEGEGKSKKISKKNAAIAVLEEL [G27N] and KSEISQVFEIALKRNLPVNFEVARESTPPHMKNFVTKVSVGEFVGEGEGKSKKISKKNAAIAVLEEL [G27T] are within error of each other in abundance fitness: -0.307 ± 0.081 for the first, -0.309 ± 0.047 for the second.

KSEISQVFEIALKRNLPVNFEVARESLPPHMKNFVTKVSVGEFVGEGEGKSKKISKKNAAIAVLEEL [G27L] and KSEISQVFEIALKRNLPVNFEVARESVPPHMKNFVTKVSVGEFVGEGEGKSKKISKKNAAIAVLEEL [G27V] are within error of each other in abundance fitness: -0.418 ± 0.036 for the first, -0.457 ± 0.047 for the second.

KSEISQVFEIALKRNLPVNFEVARESAPPHMKNFVTKVSVGEFVGEGEGKSKKISKKNAAIAVLEEL [G27A] and KSEISQVFEIALKRNLPVNFEVARESIPPHMKNFVTKVSVGEFVGEGEGKSKKISKKNAAIAVLEEL [G27I] are within error of each other in abundance fitness: -0.239 ± 0.043 for the first, -0.223 ± 0.12 for the second.

KSEISQVFEIALKRNLPVNFEVARESDPPHMKNFVTKVSVGEFVGEGEGKSKKISKKNAAIAVLEEL [G27D] and KSEISQVFEIALKRNLPVNFEVARESSPPHMKNFVTKVSVGEFVGEGEGKSKKISKKNAAIAVLEEL [G27S] are within error of each other in abundance fitness: -0.259 ± 0.046 for the first, -0.267 ± 0.042 for the second.

Going from KSEISQVFEIALKRNLPVNFEVARESEPPHMKNFVTKVSVGEFVGEGEGKSKKISKKNAAIAVLEEL [G27E] to KSEISQVFEIALKRNLPVNFEVARESWPPHMKNFVTKVSVGEFVGEGEGKSKKISKKNAAIAVLEEL [G27W], the abundance fitness falls from -0.339 ± 0.049 to -0.48 ± 0.046.

KSEISQVFEIALKRNLPVNFEVARESQPPHMKNFVTKVSVGEFVGEGEGKSKKISKKNAAIAVLEEL [G27Q] and KSEISQVFEIALKRNLPVNFEVARESCPPHMKNFVTKVSVGEFVGEGEGKSKKISKKNAAIAVLEEL [G27C] are within error of each other in abundance fitness: -0.259 ± 0.044 for the first, -0.366 ± 0.076 for the second.

KSEISQVFEIALKRNLPVNFEVARESYPPHMKNFVTKVSVGEFVGEGEGKSKKISKKNAAIAVLEEL [G27Y] and KSEISQVFEIALKRNLPVNFEVARESHPPHMKNFVTKVSVGEFVGEGEGKSKKISKKNAAIAVLEEL [G27H] are within error of each other in abundance fitness: -0.437 ± 0.079 for the first, -0.326 ± 0.11 for the second.

KSEISQVFEIALKRNLPVNFEVARESFPPHMKNFVTKVSVGEFVGEGEGKSKKISKKNAAIAVLEEL [G27F] and KSEISQVFEIALKRNLPVNFEVARESMPPHMKNFVTKVSVGEFVGEGEGKSKKISKKNAAIAVLEEL [G27M] are within error of each other in abundance fitness: -0.436 ± 0.071 for the first, -0.395 ± 0.05 for the second.

Compared with KSEISQVFEIALKRNLPVNFEVAQESGPPHMKNFVTKVSVGEFVGEGEGKSKKISKKNAAIAVLEEL [R24Q], KSEISQVFEIALKRNLPVNFEVAGESGPPHMKNFVTKVSVGEFVGEGEGKSKKISKKNAAIAVLEEL [R24G] is lower in abundance fitness: -0.085 ± 0.042 for the first, -0.196 ± 0.037 for the second.

KSEISQVFEIALKRNLPVNFEVAYESGPPHMKNFVTKVSVGEFVGEGEGKSKKISKKNAAIAVLEEL [R24Y] and KSEISQVFEIALKRNLPVNFEVAWESGPPHMKNFVTKVSVGEFVGEGEGKSKKISKKNAAIAVLEEL [R24W] are within error of each other in abundance fitness: -0.246 ± 0.064 for the first, -0.256 ± 0.038 for the second.
